Results on three molecules are retold here after US7951356B1, “Tissue factor compositions and kits for coagulation and tumor treatment” (Board of Regents, The University of Texas System, priority 1997, dated 2011).

The conditions of data set [1]: cited from earlier work.
Data set [2] deals with HT29 (human colorectal carcinoma) xenograft. The data set is described as follows: Tumor necrosis in HT29 xenografts 24 hours after treatment (Example XII). The format is in vivo, mouse. As to conditions: 24 hours after intravenous injection; tumors 0.5 to 1.0 cm^3; FIG. 23. On the procedure:
For these studies, the inventors chose the HT29 (human colorectal carcinoma) xenograft tumor model. HT29 cells (10^7 cells/mouse) were subcutaneously injected into BALB/c nu/nu mice. Tumor dimensions were monitored and animals were treated when the tumor size was between 0.5 and 1.0 cm^3.
Animals were sacrificed 24 hours after treatment, perfused with saline and heparin and exsanguinated. Tumors and organs were collected, formalin fixed and histological sections were prepared. The average area of necrosis in sections of the tumors was quantified and calculated as a percentage of the total area of tumor on the section.

Data set [3] can be described thus: Toxicity to mice of tTF mutants and Factor VIIa given separately. The format is in vivo.
A further data set has as its system citrated mouse plasma. The data set is described as follows: In vitro coagulation assay: tTF constructs localized on A20 lymphoma cells via bispecific antibody B21-2/10H10. The format is cell-based. The following applies: for coagulation times compared with tTF219 and Factor VIIa at the same concentrations: addition of Factor VIIa at 1 nM or greater, FIG. 22; for coagulation-inducing activity once localized on A20 cells via B21-2/10H10, in words (compared with tTF219): plasma coagulation. The protocol: This assay was used to verify that tTF, various derivatives and mutants thereof, and immunoglobulin-tTF conjugates acquire coagulation inducing activity once localized at a cell surface. A20 lymphoma cells (I-A^d positive) (2×10^6 cells/ml, 50 μl) were incubated for 1 h at room temperature with a bispecific antibody (50 μg/ml, 25 μl) consisting of a Fab′ arm of the B21-2 antibody directed against I-A^d linked to a Fab′ arm of the 10H10 antibody directed against a non-inhibitory epitope on tTF. The cells were washed at room temperature and varying concentrations of tTF, derivatives or mutants thereof, or immunoglobulin-tTF conjugates were added for 1 hour at room temperature. The bispecific antibody captures the tTF or tTF linked to immunoglobulin, bringing it into close approximation to the cell surface, where coagulation can proceed.
The cells were washed again at room temperature, resuspended in 75 μl of PBS and warmed to 37° C. […] The time for the first fibrin strands to form was recorded. Clotting time was plotted against tTF concentration and curves compared with standard curves prepared using standard tTF219 preparations.

As to “Factor VIIa: recombinant human Factor VIIa”, the half-life in vivo entry in data set [1] was “approximately two”. The “necrosis in tumor sections, in words” value in data set [2] is reported as “some necrosis”.

B1: tTF219 (G164A): amino acid 164 (Gly) of tTF219 replaced by Ala; SEQ ID NO:9 (protein)
chain: SGTTNTVAAYNLTWKSTNFKTILEWEPKPVNQVYTVQISTKSGDWKSKCFYTTDTECDLTDEIVKDVKQTYLARVFSYPAGNVESTGSAGEPLYENSPEFTPYLETNLGQPTIQSFEQVGTKVNVTVEDERTLVRRNNTFLSLRDVFGKDLIYTLYYWKSSSSAKKTAKTNTNEFLIDVDKGENYCFSVQAVIPSRTVNRKSTDSPVECMGQEKGEFRE
In the case of B1, in data set [3], the toxicity to mice entry is “practically non-toxic”. Moreover, in the data set with citrated mouse plasma, the “coagulation times compared with tTF219 and Factor VIIa at the same concentrations” value was “only marginally slower coagulation times”; the “coagulation-inducing activity once localized on A20 cells via B21-2/10H10, in words (compared with tTF219)” value is on record as “Weak coagulation”. For the same molecule, the “necrosis in tumor sections, in words” value in data set [2] is “some necrosis”.

B2: tTF219 (W158R): tryptophan at amino acid 158 of tTF219 mutated to an arginine; SEQ ID NO:8 (protein)
chain: SGTTNTVAAYNLTWKSTNFKTILEWEPKPVNQVYTVQISTKSGDWKSKCFYTTDTECDLTDEIVKDVKQTYLARVFSYPAGNVESTGSAGEPLYENSPEFTPYLETNLGQPTIQSFEQVGTKVNVTVEDERTLVRRNNTFLSLRDVFGKDLIYTLYYRKSSSSGKKTAKTNTNEFLIDVDKGENYCFSVQAVIPSRTVNRKSTDSPVECMGQEKGEFRE
In the case of B2, the toxicity to mice entry in data set [3] is given as “practically non-toxic”. For the same molecule, in the data set on citrated mouse plasma, the “coagulation times compared with tTF219 and Factor VIIa at the same concentrations” value is given as “only marginally slower coagulation times”; the “coagulation-inducing activity once localized on A20 cells via B21-2/10H10, in words (compared with tTF219)” value is “Weak coagulation”.
